Reference: patent US7067474B1, “Agents for treating human illnesses based on β-catenin, and the production and use thereof” (Max-Delbruck-Centrum fur Molekulare Medizin, priority 1998, dated 2006)

B1: human β-catenin (Leu218-Leu781) mutant Arg 274 to alanine, Gal-4 activation domain fusion (other, not shown: large carriers; small tags and cut ends)
chain: LHNLSHHREGLLAIFKSGGIPALVKMLGSPVDSVLFYAITTLHNLLLHQEGAKMAVALAGGLQKMVALLNKTNVKFLAITTDCLQILAYGNQESKLIILASGGPQALVNIMRTYTYEKLLWTTSRVLKVLSVCSSNKPAIVEAGGMQALGLHLTDPSQRLVQNCLWTLRNLSDAATKQEGMEGLLGTLVQLLGSDDINVVTCAAGILSNLTCNNYKNKMMVCQVGGIEALVRTVLRAGDREDITEPAICALRHLTSRHQEAEMAQNAVRLHYGLPVVVKLLHPPSHWPLIKATVGLIRNLALCPANHAPLREQGAIPRLVQLLVRAHQDTQRRTSMGGTQQQFVEGVRMEEIVEGCTGALHILARDVHNRIVIRGLNTIPLFVQLLYSPIENIQRVAAGVLCELAQDKEAAEAIEAEGATAPLTELLHSRNEGVATYAAAVLFRMSEDKPQDYKKRLSVELTSSLFRTEPMAWNETADLGLDIGAQGEPLGYRQDDPSYRSFHSGGYGQDALGMDPMMEHEMGGHHPGADYPVDGLPDLGHAQDLMDGLPPGDSNQLAWFDTDL
B2: human β-catenin (Leu218-Leu781) mutant Arg 469 to alanine, Gal-4 activation domain fusion (other, not shown: large carriers; small tags and cut ends)
chain: LHNLSHHREGLLAIFKSGGIPALVKMLGSPVDSVLFYAITTLHNLLLHQEGAKMAVRLAGGLQKMVALLNKTNVKFLAITTDCLQILAYGNQESKLIILASGGPQALVNIMRTYTYEKLLWTTSRVLKVLSVCSSNKPAIVEAGGMQALGLHLTDPSQRLVQNCLWTLRNLSDAATKQEGMEGLLGTLVQLLGSDDINVVTCAAGILSNLTCNNYKNKMMVCQVGGIEALVRTVLRAGDREDITEPAICALAHLTSRHQEAEMAQNAVRLHYGLPVVVKLLHPPSHWPLIKATVGLIRNLALCPANHAPLREQGAIPRLVQLLVRAHQDTQRRTSMGGTQQQFVEGVRMEEIVEGCTGALHILARDVHNRIVIRGLNTIPLFVQLLYSPIENIQRVAAGVLCELAQDKEAAEAIEAEGATAPLTELLHSRNEGVATYAAAVLFRMSEDKPQDYKKRLSVELTSSLFRTEPMAWNETADLGLDIGAQGEPLGYRQDDPSYRSFHSGGYGQDALGMDPMMEHEMGGHHPGADYPVDGLPDLGHAQDLMDGLPPGDSNQLAWFDTDL
B3: human β-catenin (Leu218-Leu781) mutant Lys 354 to alanine, Gal-4 activation domain fusion (other, not shown: large carriers; small tags and cut ends)
chain: LHNLSHHREGLLAIFKSGGIPALVKMLGSPVDSVLFYAITTLHNLLLHQEGAKMAVRLAGGLQKMVALLNKTNVKFLAITTDCLQILAYGNQESKLIILASGGPQALVNIMRTYTYEKLLWTTSRVLKVLSVCSSNAPAIVEAGGMQALGLHLTDPSQRLVQNCLWTLRNLSDAATKQEGMEGLLGTLVQLLGSDDINVVTCAAGILSNLTCNNYKNKMMVCQVGGIEALVRTVLRAGDREDITEPAICALRHLTSRHQEAEMAQNAVRLHYGLPVVVKLLHPPSHWPLIKATVGLIRNLALCPANHAPLREQGAIPRLVQLLVRAHQDTQRRTSMGGTQQQFVEGVRMEEIVEGCTGALHILARDVHNRIVIRGLNTIPLFVQLLYSPIENIQRVAAGVLCELAQDKEAAEAIEAEGATAPLTELLHSRNEGVATYAAAVLFRMSEDKPQDYKKRLSVELTSSLFRTEPMAWNETADLGLDIGAQGEPLGYRQDDPSYRSFHSGGYGQDALGMDPMMEHEMGGHHPGADYPVDGLPDLGHAQDLMDGLPPGDSNQLAWFDTDL
B4: human β-catenin (Leu218-Leu781) mutant Lys 345 to alanine, Gal-4 activation domain fusion (other, not shown: large carriers; small tags and cut ends)
chain: LHNLSHHREGLLAIFKSGGIPALVKMLGSPVDSVLFYAITTLHNLLLHQEGAKMAVRLAGGLQKMVALLNKTNVKFLAITTDCLQILAYGNQESKLIILASGGPQALVNIMRTYTYEKLLWTTSRVLAVLSVCSSNKPAIVEAGGMQALGLHLTDPSQRLVQNCLWTLRNLSDAATKQEGMEGLLGTLVQLLGSDDINVVTCAAGILSNLTCNNYKNKMMVCQVGGIEALVRTVLRAGDREDITEPAICALRHLTSRHQEAEMAQNAVRLHYGLPVVVKLLHPPSHWPLIKATVGLIRNLALCPANHAPLREQGAIPRLVQLLVRAHQDTQRRTSMGGTQQQFVEGVRMEEIVEGCTGALHILARDVHNRIVIRGLNTIPLFVQLLYSPIENIQRVAAGVLCELAQDKEAAEAIEAEGATAPLTELLHSRNEGVATYAAAVLFRMSEDKPQDYKKRLSVELTSSLFRTEPMAWNETADLGLDIGAQGEPLGYRQDDPSYRSFHSGGYGQDALGMDPMMEHEMGGHHPGADYPVDGLPDLGHAQDLMDGLPPGDSNQLAWFDTDL
B5: human β-catenin (Leu218-Leu781) mutant His 470 to alanine, Gal-4 activation domain fusion (other, not shown: large carriers; small tags and cut ends)
chain: LHNLSHHREGLLAIFKSGGIPALVKMLGSPVDSVLFYAITTLHNLLLHQEGAKMAVRLAGGLQKMVALLNKTNVKFLAITTDCLQILAYGNQESKLIILASGGPQALVNIMRTYTYEKLLWTTSRVLKVLSVCSSNKPAIVEAGGMQALGLHLTDPSQRLVQNCLWTLRNLSDAATKQEGMEGLLGTLVQLLGSDDINVVTCAAGILSNLTCNNYKNKMMVCQVGGIEALVRTVLRAGDREDITEPAICALRALTSRHQEAEMAQNAVRLHYGLPVVVKLLHPPSHWPLIKATVGLIRNLALCPANHAPLREQGAIPRLVQLLVRAHQDTQRRTSMGGTQQQFVEGVRMEEIVEGCTGALHILARDVHNRIVIRGLNTIPLFVQLLYSPIENIQRVAAGVLCELAQDKEAAEAIEAEGATAPLTELLHSRNEGVATYAAAVLFRMSEDKPQDYKKRLSVELTSSLFRTEPMAWNETADLGLDIGAQGEPLGYRQDDPSYRSFHSGGYGQDALGMDPMMEHEMGGHHPGADYPVDGLPDLGHAQDLMDGLPPGDSNQLAWFDTDL
B6: human β-catenin (Leu218-Leu781) mutant Arg 386 to alanine, Gal-4 activation domain fusion (other, not shown: large carriers; small tags and cut ends)
chain: LHNLSHHREGLLAIFKSGGIPALVKMLGSPVDSVLFYAITTLHNLLLHQEGAKMAVRLAGGLQKMVALLNKTNVKFLAITTDCLQILAYGNQESKLIILASGGPQALVNIMRTYTYEKLLWTTSRVLKVLSVCSSNKPAIVEAGGMQALGLHLTDPSQRLVQNCLWTLANLSDAATKQEGMEGLLGTLVQLLGSDDINVVTCAAGILSNLTCNNYKNKMMVCQVGGIEALVRTVLRAGDREDITEPAICALRHLTSRHQEAEMAQNAVRLHYGLPVVVKLLHPPSHWPLIKATVGLIRNLALCPANHAPLREQGAIPRLVQLLVRAHQDTQRRTSMGGTQQQFVEGVRMEEIVEGCTGALHILARDVHNRIVIRGLNTIPLFVQLLYSPIENIQRVAAGVLCELAQDKEAAEAIEAEGATAPLTELLHSRNEGVATYAAAVLFRMSEDKPQDYKKRLSVELTSSLFRTEPMAWNETADLGLDIGAQGEPLGYRQDDPSYRSFHSGGYGQDALGMDPMMEHEMGGHHPGADYPVDGLPDLGHAQDLMDGLPPGDSNQLAWFDTDL
B7: human β-catenin (Leu218-Leu781) mutant Arg 342 to alanine, Gal-4 activation domain fusion (other, not shown: large carriers; small tags and cut ends)
chain: LHNLSHHREGLLAIFKSGGIPALVKMLGSPVDSVLFYAITTLHNLLLHQEGAKMAVRLAGGLQKMVALLNKTNVKFLAITTDCLQILAYGNQESKLIILASGGPQALVNIMRTYTYEKLLWTTSAVLKVLSVCSSNKPAIVEAGGMQALGLHLTDPSQRLVQNCLWTLRNLSDAATKQEGMEGLLGTLVQLLGSDDINVVTCAAGILSNLTCNNYKNKMMVCQVGGIEALVRTVLRAGDREDITEPAICALRHLTSRHQEAEMAQNAVRLHYGLPVVVKLLHPPSHWPLIKATVGLIRNLALCPANHAPLREQGAIPRLVQLLVRAHQDTQRRTSMGGTQQQFVEGVRMEEIVEGCTGALHILARDVHNRIVIRGLNTIPLFVQLLYSPIENIQRVAAGVLCELAQDKEAAEAIEAEGATAPLTELLHSRNEGVATYAAAVLFRMSEDKPQDYKKRLSVELTSSLFRTEPMAWNETADLGLDIGAQGEPLGYRQDDPSYRSFHSGGYGQDALGMDPMMEHEMGGHHPGADYPVDGLPDLGHAQDLMDGLPPGDSNQLAWFDTDL

How the values were obtained:
Test in all cases: yeast 2-hybrid, β-galactosidase reporter; percent of wild type β-catenin
[1] = biological target: conductin amino acids Ala342-Arg465 fused to Lex-A (vector BTM 116) (UniProt P0A7C2)
[2] = biological target: human APC amino acids Ser1259-Asp1400 (APC 20 amino acid repeats) fused to Lex-A (vector BTM 116) (human)
[3] = biological target: E-cadherin amino acids Gln773-Asp884 (cytoplasmatic domain) fused to Lex-A (vector BTM 116) (UniProt P0A7C2 1-202; P09803 773-884)
Description: (§1) 4. Preparation and testing of mutants of β-catenin modulating the interaction with LEF-1, APC, conductin or E-cadherin The mutagenesis of β-catenin in the armadillo repeats 3–8 was carried out by means of the "mutagenesis kit" of the company Clontech according to the producer's record and the mutants were checked by sequencing (FIG. 5). In all mutants the original amino acid was substituted by alanine. For analyzing the interactions the cDNA of human β-catenin (armadillo repeat 3 up to the C-terminal end of the protein) coding for the amino acids Leu218–Leu7 µl or its mutants was cloned into the fusion vector for the activation domain of Gal-4 (pGAD424, Clontech). The cDNA for the binding domains of the interaction partners was cloned into the Lex-A fusion vector BTM 116. To this end, the cDNA of LEF-1 for the amino acids 1–99, conductin for the amino acids Ala342–ARG465; of human APC for the amino acids His1012–Glu1215 (APC 15 amino acid repeats) and for the amino acids Ser1259Asp 1400 (APC 20 amino acid repeats) and E-cadherin for the amino acids Gin773–Asp884 (cytoplasmatic domain) were amplified with the respective primers PCR. The interaction of the Lex-A hybrids with β-catenin and its mutants was quantified by means of the β-galactosidase reporter activity in the yeast 2-hybrid system (report: "Matchmaker". Clontech) (Tab. 2 and FIG. 6).

[4] = biological target: T1, LEF-1 amino acids 1-99 fused to Lex-A (vector BTM 116) (UniProt P0A7C2 1-202; P27782 1-99)
T1 construct: Order of the fusion follows the vector; also called LEF-1/TCF-4
Description: as §1

[5] = biological target: human APC amino acids His1012-Glu1215 (APC 15 amino acid repeats) fused to Lex-A (vector BTM 116) (human)
human APC amino acids His1012-Glu1215 (APC 15 amino acid repeats) fused to Lex-A (vector BTM 116) (human), sequence (P0A7C2 other isoform, or with tags, fused parts or gaps limits assumed, form in doubt): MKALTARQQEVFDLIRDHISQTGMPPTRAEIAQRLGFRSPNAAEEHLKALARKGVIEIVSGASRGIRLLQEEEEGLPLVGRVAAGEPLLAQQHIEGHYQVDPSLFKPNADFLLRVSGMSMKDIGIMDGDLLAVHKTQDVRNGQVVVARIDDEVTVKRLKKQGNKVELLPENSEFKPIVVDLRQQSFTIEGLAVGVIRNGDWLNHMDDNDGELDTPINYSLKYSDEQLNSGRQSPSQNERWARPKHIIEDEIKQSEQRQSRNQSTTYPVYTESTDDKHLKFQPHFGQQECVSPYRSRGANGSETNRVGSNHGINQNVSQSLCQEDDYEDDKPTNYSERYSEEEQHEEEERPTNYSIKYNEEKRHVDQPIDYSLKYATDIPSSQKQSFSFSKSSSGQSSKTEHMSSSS

T1 sequence (P0A7C2 other isoform, or with tags, fused parts or gaps limits assumed): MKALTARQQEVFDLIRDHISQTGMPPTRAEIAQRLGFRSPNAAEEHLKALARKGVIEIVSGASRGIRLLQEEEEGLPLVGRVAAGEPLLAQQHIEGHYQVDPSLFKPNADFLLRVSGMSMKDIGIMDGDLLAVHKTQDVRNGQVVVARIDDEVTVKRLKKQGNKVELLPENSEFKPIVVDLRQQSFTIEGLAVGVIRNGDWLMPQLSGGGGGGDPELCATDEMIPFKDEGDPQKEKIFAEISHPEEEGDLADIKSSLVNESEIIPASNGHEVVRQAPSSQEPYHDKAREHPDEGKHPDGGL
human APC amino acids Ser1259-Asp1400 (APC 20 amino acid repeats) fused to Lex-A (vector BTM 116) (human), sequence (P0A7C2 other isoform, or with tags, fused parts or gaps limits assumed, form in doubt): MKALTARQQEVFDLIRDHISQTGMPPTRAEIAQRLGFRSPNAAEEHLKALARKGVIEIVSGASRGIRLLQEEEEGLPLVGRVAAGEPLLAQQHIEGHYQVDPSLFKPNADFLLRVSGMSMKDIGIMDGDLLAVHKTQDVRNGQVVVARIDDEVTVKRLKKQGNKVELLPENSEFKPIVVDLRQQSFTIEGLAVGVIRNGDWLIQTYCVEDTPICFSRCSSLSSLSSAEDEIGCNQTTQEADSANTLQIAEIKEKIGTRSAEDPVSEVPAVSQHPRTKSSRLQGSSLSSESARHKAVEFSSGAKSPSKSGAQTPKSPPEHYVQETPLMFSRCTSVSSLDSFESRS
conductin amino acids Ala342-Arg465 fused to Lex-A (vector BTM 116), sequence (P0A7C2 other isoform, or with tags, fused parts or gaps limits assumed, form in doubt): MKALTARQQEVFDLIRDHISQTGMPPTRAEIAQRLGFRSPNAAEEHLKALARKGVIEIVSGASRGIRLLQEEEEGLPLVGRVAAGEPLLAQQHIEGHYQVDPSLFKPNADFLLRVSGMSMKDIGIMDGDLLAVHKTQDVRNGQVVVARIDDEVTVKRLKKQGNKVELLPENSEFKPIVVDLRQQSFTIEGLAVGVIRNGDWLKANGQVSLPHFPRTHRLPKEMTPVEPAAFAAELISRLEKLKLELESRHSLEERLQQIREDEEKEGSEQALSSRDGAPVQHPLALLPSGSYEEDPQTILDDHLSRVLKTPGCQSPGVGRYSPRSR
E-cadherin amino acids Gln773-Asp884 (cytoplasmatic domain) fused to Lex-A (vector BTM 116), sequence (P0A7C2 other isoform, or with tags, fused parts or gaps limits assumed, form in doubt): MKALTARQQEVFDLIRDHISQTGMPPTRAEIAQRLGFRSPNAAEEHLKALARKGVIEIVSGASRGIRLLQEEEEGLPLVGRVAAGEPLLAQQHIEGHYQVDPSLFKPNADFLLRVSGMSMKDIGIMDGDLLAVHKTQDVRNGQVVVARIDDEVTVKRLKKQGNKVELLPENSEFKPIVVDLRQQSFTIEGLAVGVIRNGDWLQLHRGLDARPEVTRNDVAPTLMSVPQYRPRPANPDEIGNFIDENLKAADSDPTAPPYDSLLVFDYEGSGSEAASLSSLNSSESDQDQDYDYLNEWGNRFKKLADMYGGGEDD

| share of the interaction with wild type β-catenin in percent [1] [%] | share of the interaction with wild type β-catenin in percent [2] [%] | share of the interaction with wild type β-catenin in percent [3] [%] | share of the interaction with wild type β-catenin in percent [4] [%] | share of the interaction with wild type β-catenin in percent [5] [%] | Binder |
| --- | --- | --- | --- | --- | --- |
| 29 | 40 | 50 |  |  | B1 |
|  |  | 50 | 17 |  | B2 |
| 43 |  | 40 | 38 | 54 | B3 |
| 22 |  | 27 | 38 |  | B4 |
|  | 47 |  | 2 | 60 | B5 |
| 45 |  |  | 35 | 12 | B6 |
| 20 | 29 | 41 |  |  | B7 |
